Reference: patent US20160024487

Legend:
[1] = tested on: Lys(Dnp)-ATNATAMPRIVGG-Lys(Abz)
[2] = tested on: Lys(Dnp)-ATNATANPRIVGG-Lys(Abz)
[3] = tested on: Lys(Dnp)-ATNATARPRIVGG-Lys(Abz)
[4] = tested on: Lys(Dnp)-ATNATAVPRIVGG-Lys(Abz)
[5] = tested on: Lys(Dnp)-ATNATDEPRIVGG-Lys(Abz)
[6] = tested on: Lys(Dnp)-ATNATDFPRIVGG-Lys(Abz)
[7] = tested on: Lys(Dnp)-ATNATDHPRIVGG-Lys(Abz)
[8] = tested on: Lys(Dnp)-ATNATDIPRIVGG-Lys(Abz)
[9] = tested on: Lys(Dnp)-ATNATDKPRIVGG-Lys(Abz)
[10] = tested on: Lys(Dnp)-ATNATEAPRIVGG-Lys(Abz)
[11] = tested on: Lys(Dnp)-ATNATEPPRIVGG-Lys(Abz)
[12] = tested on: Lys(Dnp)-ATNATEVPRIVGG-Lys(Abz)
[13] = tested on: Lys(Dnp)-ATNATFIPRIVGG-Lys(Abz)
[14] = tested on: Lys(Dnp)-ATNATFQPRIVGG-Lys(Abz)
[15] = tested on: Lys(Dnp)-ATNATFWPRIVGG-Lys(Abz)
[16] = tested on: Lys(Dnp)-ATNATGNPRIVGG-Lys(Abz)
[17] = tested on: Lys(Dnp)-ATNATHFPRIVGG-Lys(Abz)
[18] = tested on: Lys(Dnp)-ATNATHGPRIVGG-Lys(Abz)
[19] = tested on: Lys(Dnp)-ATNATHHPRIVGG-Lys(Abz)
[20] = tested on: Lys(Dnp)-ATNATHNPRIVGG-Lys(Abz)
[21] = tested on: Lys(Dnp)-ATNATIDPRIVGG-Lys(Abz)
[22] = tested on: Lys(Dnp)-ATNATINPRIVGG-Lys(Abz)
[23] = tested on: Lys(Dnp)-ATNATKHPRIVGG-Lys(Abz)
[24] = tested on: Lys(Dnp)-ATNATKMPRIVGG-Lys(Abz)
[25] = tested on: Lys(Dnp)-ATNATKTPRIVGG-Lys(Abz)
[26] = tested on: Lys(Dnp)-ATNATKYPRIVGG-Lys(Abz)
[27] = tested on: Lys(Dnp)-ATNATLVPRIVGG-Lys(Abz)
[28] = tested on: Lys(Dnp)-ATNATNDPRIVGG-Lys(Abz)
[29] = tested on: Lys(Dnp)-ATNATNGPRIVGG-Lys(Abz)
[30] = tested on: Lys(Dnp)-ATNATNPPRIVGG-Lys(Abz)
[31] = tested on: Lys(Dnp)-ATNATPAPRIVGG-Lys(Abz)
[32] = tested on: Lys(Dnp)-ATNATPDPRIVGG-Lys(Abz)
[33] = tested on: Lys(Dnp)-ATNATPFPRIVGG-Lys(Abz)
[34] = tested on: Lys(Dnp)-ATNATQDPRIVGG-Lys(Abz)
[35] = tested on: Lys(Dnp)-ATNATQNPRIVGG-Lys(Abz)
[36] = tested on: Lys(Dnp)-ATNATQPPRIVGG-Lys(Abz)
[37] = tested on: Lys(Dnp)-ATNATQQPRIVGG-Lys(Abz)
[38] = tested on: Lys(Dnp)-ATNATRIPRIVGG-Lys(Abz)
[39] = tested on: Lys(Dnp)-ATNATSSPRIVGG-Lys(Abz)
[40] = tested on: Lys(Dnp)-ATNATTDPRIVGG-Lys(Abz)
[41] = tested on: Lys(Dnp)-ATNATTEPRIVGG-Lys(Abz)
[42] = tested on: Lys(Dnp)-ATNATTNPRIVGG-Lys(Abz)
[43] = tested on: Lys(Dnp)-ATNATVFPRIVGG-Lys(Abz)
[44] = tested on: Lys(Dnp)-ATNATVLPRIVGG-Lys(Abz)
[45] = tested on: Lys(Dnp)-ATNATVSPRIVGG-Lys(Abz)
[46] = tested on: Lys(Dnp)-ATNATWPPRIVGG-Lys(Abz)
[47] = tested on: Lys(Dnp)-ATNATYKPRIVGG-Lys(Abz)
[48] = tested on: Lys(Dnp)-DFLAEGGGPRIVGG-Lys(Abz)
[49] = tested on: Lys(Dnp)-DNEEGFFSARIVGG-Lys(Abz)
[50] = tested on: Lys(Dnp)-DQVTVAMTPRIVGG-Lys(Abz)
[51] = tested on: Lys(Dnp)-EDSDRAIEGRIVGG-Lys(Abz)
[52] = tested on: Lys(Dnp)-NESTTKIKPRIVGG-Lys(Abz)
[53] = tested on: Lys(Dnp)-SEYQTFFNPRIVGG-Lys(Abz)
[54] = tested on: PAR 1 control substrate sequence [Lys(Dnp)-ATNATLDPRIVGG-Lys(Abz)]
[55] = tested on: 21k-HEP-[N]-FX ins[194]>[DFLAEGGGVR]-HPC4
Sequence of 21k-HEP-[N]-FX ins[194]>[DFLAEGGGVR]-HPC4 (chain, as listed by the source): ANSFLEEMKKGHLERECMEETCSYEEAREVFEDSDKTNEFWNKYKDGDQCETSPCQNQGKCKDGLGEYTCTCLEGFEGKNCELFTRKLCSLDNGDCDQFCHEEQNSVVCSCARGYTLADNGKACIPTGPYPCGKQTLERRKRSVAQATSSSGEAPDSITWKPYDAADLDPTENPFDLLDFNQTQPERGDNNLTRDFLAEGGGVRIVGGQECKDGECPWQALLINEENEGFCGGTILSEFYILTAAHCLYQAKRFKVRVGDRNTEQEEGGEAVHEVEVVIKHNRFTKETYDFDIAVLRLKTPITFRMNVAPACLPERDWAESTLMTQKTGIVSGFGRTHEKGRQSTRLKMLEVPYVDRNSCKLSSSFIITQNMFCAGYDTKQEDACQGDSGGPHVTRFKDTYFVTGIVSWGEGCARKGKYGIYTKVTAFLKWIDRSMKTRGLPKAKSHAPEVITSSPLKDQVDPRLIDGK

[56] = tested on: 40k-HEP-[N]-FX ins[194]>[DFLAEGGGVR]-HPC4
[57] = tested on: 73k-HEP-[N]-FX ins[194]>[DFLAEGGGVR]-HPC4
[58] = tested on: At least 20 sequences selected from the QF-substrate library
[59] = tested on: FX ins[194]>[DFLAEGGGPR]-HPC4
Sequence of FX ins[194]>[DFLAEGGGPR]-HPC4 (chain, as listed by the source): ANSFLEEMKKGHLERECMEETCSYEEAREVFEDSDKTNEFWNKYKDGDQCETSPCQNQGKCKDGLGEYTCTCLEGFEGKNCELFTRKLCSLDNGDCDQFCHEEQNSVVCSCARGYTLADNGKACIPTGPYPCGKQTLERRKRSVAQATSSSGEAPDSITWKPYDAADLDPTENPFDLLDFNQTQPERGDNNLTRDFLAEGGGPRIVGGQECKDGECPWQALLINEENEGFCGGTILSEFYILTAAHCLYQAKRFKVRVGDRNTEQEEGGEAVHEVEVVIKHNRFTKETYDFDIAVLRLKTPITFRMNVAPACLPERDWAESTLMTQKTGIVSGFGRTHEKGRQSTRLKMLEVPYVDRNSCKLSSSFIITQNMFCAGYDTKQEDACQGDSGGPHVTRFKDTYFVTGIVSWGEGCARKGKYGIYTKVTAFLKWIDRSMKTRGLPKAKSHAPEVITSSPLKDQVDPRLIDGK

[60] = tested on: FX ins[194]>[DFLAEGGGVR]-HPC4
[61] = tested on: FpA_P quenched fluorescence substrate Lys(Dnp)-DFLAEGGGPRIVGG-Lys(Abz)
human α-thrombin (FIIa) = human α-thrombin (FIIa) (UniProt P00734)

## Human plasma purified α-thrombin
[1]
  kcat/KM: 9000 M⁻¹ s⁻¹
[2]
  kcat/KM: 4000 M⁻¹ s⁻¹
[3]
  FIIa kcat/KM: 20000 M⁻¹ s⁻¹
  kcat/KM: 20000 M⁻¹ s⁻¹
[4]
  FIIa kcat/KM: 9700 M⁻¹ s⁻¹
  kcat/KM: 9700 M⁻¹ s⁻¹
[5]
  kcat/KM: 0.0004 M⁻¹ s⁻¹
[6]
  kcat/KM: 600 M⁻¹ s⁻¹
[7]
  kcat/KM: 1000 M⁻¹ s⁻¹
[8]
  kcat/KM: 30 M⁻¹ s⁻¹
[9]
  kcat/KM: 10 M⁻¹ s⁻¹
[10]
  kcat/KM: 400 M⁻¹ s⁻¹
[11]
  kcat/KM: 2 M⁻¹ s⁻¹
[12]
  kcat/KM: 200 M⁻¹ s⁻¹
[13]
  kcat/KM: 7000 M⁻¹ s⁻¹
[14]
  FIIa kcat/KM: 30000 M⁻¹ s⁻¹
  kcat/KM: 30000 M⁻¹ s⁻¹
[15]
  FIIa kcat/KM: 20000 M⁻¹ s⁻¹
  kcat/KM: 20000 M⁻¹ s⁻¹
[16]
  kcat/KM: 700 M⁻¹ s⁻¹
[17]
  kcat/KM: 1000 M⁻¹ s⁻¹
[18]
  kcat/KM: 1000 M⁻¹ s⁻¹
[19]
  kcat/KM: 2000 M⁻¹ s⁻¹
[20]
  kcat/KM: 800 M⁻¹ s⁻¹
[21]
  kcat/KM: 2000 M⁻¹ s⁻¹
[22]
  kcat/KM: 10000 M⁻¹ s⁻¹
[23]
  kcat/KM: 900 M⁻¹ s⁻¹
[24]
  kcat/KM: 800 M⁻¹ s⁻¹
[25]
  kcat/KM: 610 M⁻¹ s⁻¹
[26]
  kcat/KM: 700 M⁻¹ s⁻¹
[27]
  FIIa kcat/KM: 30000 M⁻¹ s⁻¹
  kcat/KM: 30000 M⁻¹ s⁻¹
[28]
  kcat/KM: 3 M⁻¹ s⁻¹
[29]
  kcat/KM: 500 M⁻¹ s⁻¹
[30]
  kcat/KM: 9 M⁻¹ s⁻¹
[31]
  kcat/KM: 7000 M⁻¹ s⁻¹
[32]
  kcat/KM: 2000 M⁻¹ s⁻¹
[33]
  FIIa kcat/KM: 9000 M⁻¹ s⁻¹
  kcat/KM: 9000 M⁻¹ s⁻¹
[34]
  kcat/KM: 500 M⁻¹ s⁻¹
[35]
  kcat/KM: 2000 M⁻¹ s⁻¹
[36]
  kcat/KM: 0 M⁻¹ s⁻¹
[37]
  kcat/KM: 10000 M⁻¹ s⁻¹
[38]
  kcat/KM: 1000 M⁻¹ s⁻¹
[39]
  kcat/KM: 1000 M⁻¹ s⁻¹
[40]
  kcat/KM: 1000 M⁻¹ s⁻¹
[41]
  kcat/KM: 700 M⁻¹ s⁻¹
[42]
  kcat/KM: 600 M⁻¹ s⁻¹
[43]
  FIIa kcat/KM: 8400 M⁻¹ s⁻¹
  kcat/KM: 8400 M⁻¹ s⁻¹
[44]
  kcat/KM: 5000 M⁻¹ s⁻¹
[45]
  FIIa kcat/KM: 7600 M⁻¹ s⁻¹
  kcat/KM: 7600 M⁻¹ s⁻¹
[46]
  FIIa kcat/KM: 9700 M⁻¹ s⁻¹
  kcat/KM: 9700 M⁻¹ s⁻¹
[47]
  FIIa kcat/KM: 5000 M⁻¹ s⁻¹
  kcat/KM: 5000 M⁻¹ s⁻¹
[48]
  kcat/KM: 40000 M⁻¹ s⁻¹
[49]
  kcat/KM: 300 M⁻¹ s⁻¹
[50]
  kcat/KM: 30000 M⁻¹ s⁻¹
[51]
  kcat/KM: 0 M⁻¹ s⁻¹
[52]
  kcat/KM: 20000 M⁻¹ s⁻¹
[53]
  kcat/KM: 20000 M⁻¹ s⁻¹
[54]
  kcat/KM: 3000 M⁻¹ s⁻¹

## human α-thrombin (FIIa)
[55]
  kinetic parameters (kcat, KM and kcat/KM) of activation, compared with the unconjugated molecule: there is no significant effect of hepylation on the observed kinetic parameters for the tested molecule
[56]
  kinetic parameters (kcat, KM and kcat/KM) of activation, compared with the unconjugated molecule: there is no significant effect of hepylation on the observed kinetic parameters for the tested molecule
[57]
  kinetic parameters (kcat, KM and kcat/KM) of activation, compared with the unconjugated molecule: there is no significant effect of hepylation on the observed kinetic parameters for the tested molecule
[58]
  cleavage rate (kcat/KM) by thrombin, fold improvement over the parent PAR-1 sequence: >20-fold improved cleavage rates (kcat/KM) over the parent PAR-1 sequence
FX [191-194]>[LTPR]-HPC4
Sequence of FX [191-194]>[LTPR]-HPC4 (chain, as listed by the source): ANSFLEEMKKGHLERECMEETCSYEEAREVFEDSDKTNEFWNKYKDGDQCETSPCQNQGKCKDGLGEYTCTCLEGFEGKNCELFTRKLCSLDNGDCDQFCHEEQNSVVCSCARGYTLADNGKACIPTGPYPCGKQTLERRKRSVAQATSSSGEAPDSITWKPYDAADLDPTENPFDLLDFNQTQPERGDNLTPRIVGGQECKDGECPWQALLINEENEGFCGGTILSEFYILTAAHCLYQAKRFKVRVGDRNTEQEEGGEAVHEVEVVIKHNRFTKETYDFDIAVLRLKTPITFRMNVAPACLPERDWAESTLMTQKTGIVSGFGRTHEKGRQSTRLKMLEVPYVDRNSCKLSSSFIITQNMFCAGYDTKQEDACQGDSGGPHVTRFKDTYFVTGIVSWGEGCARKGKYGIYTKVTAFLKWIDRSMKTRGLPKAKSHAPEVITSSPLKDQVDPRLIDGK
  kcat of activation by α-thrombin, relative to FX [191-194]>[MTPR]-HPC4: each of which have 5-10 fold higher kcat values than FX [191-194]>[MTPR]-HPC4
[59]
  activation rate (kcat/KM) by α-thrombin, relative to FX ins[194]>[DFLAEGGGVR]-HPC4: This activation rate is 10× the observed activation rate for a variant having the unmodified FpA sequence (FX ins[194]>[DFLAEGGGVR]-HPC4)
[60]
  kcat of activation by α-thrombin, relative to FX [191-194]>[MTPR]-HPC4: each of which have 5-10 fold higher kcat values than FX [191-194]>[MTPR]-HPC4
[61]
  cleavage rate (kcat/KM) by thrombin: The most improved natural substrate was shown to be the FpA_P sequence, which has a proline residue at X2 instead of the naturally occurring valine

## FX-HPC4
Human α-thrombin (FIIa)
  kcat/KM: No Activity
